Values of other authors in article PMC2904371.

Biological target: Vinculin tail Vd5 (UniProt P18206)

Kd: 1 nM
Substance: Vinculin head Vd1-Vd4 (from UniProt P18206)
